For this experiment, the target named is T1, Halo-tagged α-syt7cyto (cytoplasmic domain of synaptotagmin 7 α, immobilised on HaloLink resin) (mouse, UniProt Q9R0N7 38-403).
T1 construct: synaptotagmin 7, α splice variant, cytoplasmic domain; The Halo-tagged construct is not described under DNA constructs; The sentence on syt1-fl says only 'immobilized syt7'; also called immobilized syt7; source: purified Halo-tagged protein; recombinant proteins were expressed in E. coli BL21(DE3)
As to the kind of experiment: pull-down; Halo-tagged bait immobilised on HaloLink resin (7 μM bait), prey syt1-fl in DOPC proteoliposomes; 25 mM HEPES pH 7.4, 100 mM KCl, 0.2 mM EGTA or 1.2 mM Ca2+; 1 h at 25 °C; supernatants analysed by SDS-PAGE and Western blot. Conditions: both partners purified. (In general: Immunoblotting shows a protein as a band on a membrane.)

T1 sequence (Q9R0N7 38-403): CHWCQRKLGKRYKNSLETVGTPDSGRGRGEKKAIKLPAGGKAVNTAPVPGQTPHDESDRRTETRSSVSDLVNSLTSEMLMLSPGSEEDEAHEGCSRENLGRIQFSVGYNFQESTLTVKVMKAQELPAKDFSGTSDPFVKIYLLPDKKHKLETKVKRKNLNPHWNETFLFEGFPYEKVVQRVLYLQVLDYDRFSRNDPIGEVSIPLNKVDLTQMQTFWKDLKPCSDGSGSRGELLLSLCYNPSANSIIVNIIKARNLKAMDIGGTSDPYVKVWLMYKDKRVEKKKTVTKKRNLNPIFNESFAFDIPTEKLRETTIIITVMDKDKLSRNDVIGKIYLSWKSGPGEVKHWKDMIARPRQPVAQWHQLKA

B1: syt1-fl (full-length synaptotagmin 1, reconstituted into liposomes) (natural protein, rat, UniProt P21707 1-421, looked up)
chain: MVSASHPEALAAPVTTVATLVPHNATEPASPGEGKEDAFSKLKQKFMNELHKIPLPPWALIAIAIVAVLLVVTCCFCVCKKCLFKKKNKKKGKEKGGKNAINMKDVKDLGKTMKDQALKDDDAETGLTDGEEKEEPKEEEKLGKLQYSLDYDFQNNQLLVGIIQAAELPALDMGGTSDPYVKVFLLPDKKKKFETKVHRKTLNPVFNEQFTFKVPYSELGGKTLVMAVYDFDRFSKHDIIGEFKVPMNTVDFGHVTEEWRDLQSAEKEEQEKLGDICFSLRYVPTAGKLTVVILEAKNLKKMDVGGLSDPYVKIHLMQNGKRLKKKKTTIKKNTLNPYYNESFSFEVPFEQIQKVQVVVTVLDYDKIGKNDAIGKVFVGYNSTGAELRHWSDMLANPRRPIAQWHTLQVEEEVDAMLAVKK
notes: synaptotagmin 1, rat cDNA from T. C; Sudhof (Perin et al., 1990); the D374 mutation of that cDNA was corrected to glycine, so residue 374 is G; also called SUMO-syt1-fl; source: E. coli BL21(DE3), purified (with 0.9% CHAPS; cleaved from the beads with SUMO protease), reconstituted into DOPC proteoliposomes
With B1, the “ratio of binding in Ca2+ to binding in EGTA” value worked out at 1.46 ± 0.15.

The values are drawn from doi:10.1101/2025.10.27.684894, “Alternative splicing of synaptotagmin 7 regulates oligomerization and short-term synaptic plasticity” (bioRxiv, 2025).
